Test system: MS2 coat protein
Assay: apparent KD of MS2 coat protein; designed switch direction (-1 OFF switch, 1 ON switch): -1; higher = weaker reporter binding
In short: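 The reported apparent KD is a per-design median over clusters, from curve fits of normalised cluster fluorescence. Protein titrations used SNAP-549-labelled MS2 coat protein, doubled from 0.7 or 1.5 nM to 3 µM, in Tris-HCl pH 7.5 buffer with KCl, MgCl2, BSA, DTT, tRNA and Tween-20, with no input, 200 uM small-molecule ligand, or an oligonucleotide input. The RNA switches were transcribed on Illumina chips by stalled E. coli RNA polymerase.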

[1] = input ligand: microRNA oligo, concentration not stated
[2] = Eterna round: R95, input ligand: microRNA oligo, concentration not stated
[3] = Eterna round: R95, input ligand: FMN 200 uM
[4] = Eterna round: R95, input ligand: none

| Sequence | apparent KD of MS2 coat protein (input ligand: FMN 200 uM) [nM] | apparent KD of MS2 coat protein [1] [nM] | apparent KD of MS2 coat protein (input ligand: none) [nM] | apparent KD of MS2 coat protein [2] [nM] | apparent KD of MS2 coat protein [3] [nM] | apparent KD of MS2 coat protein [4] [nM] |
| --- | --- | --- | --- | --- | --- | --- |
| UAUAUAUAGUAAGGAUAUGUAUUAAUUUCAUAAACAGAAGGUACUGACAUGAGGAUCACCCAUGUUUUAGUGUGGGCAUGUAGA [JMF's solution 85] (Eterna round: R96, puzzle: Exclusion NG 1) | 88.2 | 54.2 | 81.2 | – | – | – |
| GGAUAAAGUCGAGGAUAUACGCACCACUAACGAGUAGAAGGCGAACAUGAGGAUCACCCAUGUGAGUUCUCAAUAAGAAACACG [Prohibition 69 - Jieux - Exclusion NG 1] (Eterna round: R96, puzzle: Exclusion NG 1) | 54.1 | 26.1 | 37.1 | – | – | – |
| GGCCCAUGAGGAUAUCAGUCUGGAUCAGACUAGAUCCUGACUGAGAAGGCACAUGAGGAUCACCCAUGUAGGCC [Eli 4x 4.30] (Eterna round: R97, puzzle: Exclusion 4) | 17.3 | – | 23.6 | – | – | – |
| AGCUGUGGCCGAGGAUAUCUAUCCCAAAUAACCGAAAUAUAAUCGGACAUGAGGAUCACCCAUGUAGAGAAGGCGGUCUCAGCA [Eli eng2 - 088] (Eterna round: R96, puzzle: Exclusion NG 2) | – | 20.4 | – | – | – | – |
| AAAUUGUCAGGAUAUUGUUAGUUUAGUUGUUUGUAUUAGUUCGAGAAGGGACAUGAGGAUCACCCAUGUGAAAA [Ex4 #69] (Eterna round: R97, puzzle: Exclusion 4) | 38.3 | – | 41.5 | – | – | – |
| CUUCGUAUAGAGGAUAUAGGAUACUUCGGUGUCCUAGAAGGCUGUACAUGAGGAUCACCCAUGUACUUCAGAUC [Exclusion 6 - B - 14:b] (puzzle: Exclusion 6) | – | – | – | 11.9 | – | – |
| UUUUCCUGGCAAGGAUAUCCUGUGCGGUUCCGGCUCGUGUCUGUUACAUGAGGAUCACCCAUGUGGGAGAAGGUGCCUGUGGUU [Design 89] (Eterna round: R96, puzzle: Exclusion NG 2) | 272 | 34.3 | 41.7 | – | – | – |
| GACUGCUGAGGAUAUACAUGAGGAUCACCCAUGUGCUUCAGCUAGGAGACUAGCAUUGGUAGAAGGUAGUAGUC [LRO-Excl3-03] (puzzle: Exclusion 3) | – | – | – | 10.3 | – | – |
| UUUUUCGAACAAGCUUCGUACAUGAGGAUCACCCAUGUUGGUAGAUUUGAGUAGGUUUGGAUGUAAGCUCGUCUUAU [JR_SV3TOV1_Sub082] (puzzle: Sensor v3, turn-off variant 1) | – | – | – | 313 | 98.7 | 129 |
| UCAUGUUAGCAGGAUAUGCUAUUUAUUUUUUAUGCAGAAGGGCUUACAUGAGGAUCACCCAUGUGUUAGGUUUU [JR_E6_Sub073] (puzzle: Exclusion 6) | – | – | – | 29.7 | – | – |
| UUCCCACAUGAGGAUCACCCAUGUGAGGAUAUGGGCGGCGCCGCAAAAGCGGCGCCGCCCAGAAGGCGCAUGAU [Malcxlusion 8 - Jieux - Exclusion 1] (Eterna round: R97, puzzle: Exclusion 1) | 21.6 | – | 18.4 | – | – | – |
| AAACCCUCCGUAAGGAUAUGCGCAGGUAAACCGCUGUAGAAGGUACAUGAGGAUCACCCAUGUUGGACCGUGGA [Eternabot (Original) Solution 35] (Eterna round: R97, puzzle: Brourd's mod of Exclusion 4) | 36 | – | 29 | – | – | – |
| UCAAGCUUUAAGCGUGUGAACAUGAGGAUCACCCAUGUAUUUUAGGUAAUAAGUUCAAUUAUGUAUUCUCGUCUUAU [JR_SWV3TOV1_Sub095] (Eterna round: R96, puzzle: Sensor v3, turn-off variant 1) | 61.5 | 45.4 | 65.4 | – | – | – |
| AGAGUGUGAGGAUAUAUGGUGAAGAUGAAGAAAGAGAAGGAGUAGAAGGUACAUGAGGAUCACCCAUGUUGAGG [JR_Exclu4_Sub071] (puzzle: Exclusion 4) | – | – | – | 47.8 | 44.8 | 45.5 |
| AAGAAACAUGAGGAUCACCCAUGUGAGGAUAUGGCCCGCCCGGCGUGAGCAAAAUAAAUCAGAAGGCACAAAGG [salish99_ex1_r4_009] (Eterna round: R97, puzzle: Exclusion 1) | 41 | – | 30.6 | – | – | – |
| AGCUGUGGCCGAGGAUAUCUAAACUCAAUAACCGAAAUAUAAUCGGACAUGAGGAUCACCCAUGUAGAGAAGGCGGUCUCAGCA [Eli eng2 - 081] (Eterna round: R96, puzzle: Exclusion NG 2) | – | 28 | – | – | – | – |
| AACCUGAGGCAAAGCUUUAGGUGUACAUGAGGAUCACCCAUGUAGGAUAUGGUAGGCAAAGCUUACCAGAAGGACAUGUUAAUU [Mat - Exclusion NG 3 - Mod of JL - D38] (Eterna round: R96, puzzle: Exclusion NG 3) | 172 | 61.5 | 67 | – | – | – |
